Measurements from PMC4102529, “FRET Based Quantification and Screening Technology Platform for the Interactions of Leukocyte Function-Associated Antigen-1 (LFA-1) with InterCellular Adhesion Molecule-1 (ICAM-1)” (PLoS ONE, 2014).

System: LFA-1 (αLβ2)
Test: Steady-state in-solution FRET binding assay (Alexa Fluor 488-LFA-1 donor / Alexa Fluor 555-D1-D2-Fc acceptor) to determine Kd
Set-up: species or system human
Method: In determining the equilibrium dissociation constant (Kd) between the interacting protein pairs, LFA-1 and D1-D2-Fc, from the FRET binding assay, several concentrations of the acceptor conjugate, Alexa Fluor 555-D1-D2-Fc, were added to a fixed concentration of the donor conjugate, Alexa Fluor 488-LFA-1. The donor conjugate concentration was kept constant at 100 nM while the acceptor conjugate concentration was varied from 0 upto 1.6 µM. These FRET mixtures, with different donor-to-acceptor ratios, were excited by 470 and 530 nm. […] The peak intensity at 570 nm has contributions from unquenched donor emissions, direct acceptor emission and the emission of acceptor due to FRET (FFRET). However, when the FRET mixture was excited with 530 nm, only a single peak corresponding to the direct emission of the acceptor (FA) was observed.
Thus, to obtain the absolute maximum FRET emission signal at 570 nm (FFRETmax), we need to quantify each contribution from the donor and acceptor emissions as well as the FRET emission signal (FFRET). […]
In general, the direct emission of Alexa Fluor 488-LFA-1 at 570 nm is expected to be proportional to its emission at 520 nm when excited at 470 nm. […] The calculated value of “b” was 0.101±0.008. […]

- maximum FRET emission signal (FFRETmax) (at 570 nm, 100 nM Alexa Fluor 488-LFA-1, Alexa Fluor 555-D1-D2-Fc 0 to 1.6 µM, fit of Eq. (6), adj. R-square = 0.9895): 6.33×10^3 RFU
- Kd (steady-state FRET, 100 nM Alexa Fluor 488-LFA-1 fixed, Alexa Fluor 555-D1-D2-Fc 0 to 1.6 µM, PBS, pH 7.4, 1 mM EGTA, 2 mM Mg^2+, 50 µl, 96-well plate, excitation 470 nm, emission 520/570 nm, nonlinear fit Eq. (6), one-to-one, data points mean (rms) of 9 measurements, 3 samples, read-out: dissociation constant (Kd) of the LFA-1/D1-D2-Fc interaction): 17.9 ± 1.34 nM
B1: D1-D2-Fc: chimeric molecule consisting of the amino-terminal first two Ig domains of human ICAM-1 (D1-D2) fused to IgG1 Fc region (protein)
chain: QTSVSPSKVILPRGGSVLVTCSTSCDQPKLLGIETPLPKKELLLPGNNRKVYELSNVQEDSQPMCYSNCPDGQSTAKTFLTVYWTPERVELAPLPSWQPVGKNLTLRCQVEGGAPRANLTVVLLRGEKELKREPAVGEPAEVTTTVLVRRDHHGANFSCRTELDLRPQGLELFENTSAPYQLQTFVLPATPPQLVSPRVLEVDTQGTVVCSLDGLFPVSEAQVHLALGDQRLNPTVTYGNDSFSAKASVSVTAEDEGTQRLTCAVILGNQSQETLQTVTIYSFPAPNVILTKPEVSEGTEVTVKCEAHPRAKVTLNGVPAQPLGPRAQLLLKATPEDNGRSFSCSATLEVAGQLIHKNQTRELRVLYGPRLDERDCPGNWTWPENSQQTPMCQAWGNPLPELKCLKDGTFPLPIGESVTVTRDLEGTYLCRARSTQGEVTRKVTVNVLSPRYEIVIITVVAAAVIMGTAGLSTYLYNRQRKIKKYRLQQAQKGTPMKPNTQATPP
modifications: Alexa Fluor 555 (succinimidyl ester) on amine groups (amine terminus, ε-amino groups of lysines), random; F/P molar ratio 3.14±0.27; left off: Fc (IgG1), end not stated, kept
notes: chimeric molecule consisting of the amino-terminal first two Ig domains of human ICAM-1 (D1-D2) fused to IgG1 Fc region
